Source: patent publication US20170355763A1 (published 2017)

Target: T1, purified, recombinant human IL-31 fused at the C-terminal with a peptide consisting of the sequence EYMPME … (human, UniProt Q6EBC2 27-164)
T1 construct: also called human IL-31-CEE; rIL31
T1 sequence: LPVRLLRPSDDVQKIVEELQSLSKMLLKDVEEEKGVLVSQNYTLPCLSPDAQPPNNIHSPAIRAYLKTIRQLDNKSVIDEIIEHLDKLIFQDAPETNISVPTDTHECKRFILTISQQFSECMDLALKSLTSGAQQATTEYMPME
Test: capture ELISA: mAb of supernatant captured on anti-mouse IgG Fc, biotinylated IL-31-CEE
Procedure: These new supernatants were tested using the cell-based neutralization assay (serial 3-fold dilutions starting with neat supernatant and proceeding to a final 1:243 dilution) as well as a “capture” style ELISA assay similar to that used in the development of the rat anti-murine IL-31 mAbs with the following differences; 1) sheep anti-mouse IgG, Fc specific antibody (Jackson Immunoresearch) (1 ug/mL) as plate coating antibody, 2) plates blocked once with PBS-Tween+1% BSA for 1 hr, 3) a single titration of each supernatant added to wells (serial 3-fold dilutions starting with neat supernatant and proceeding to a final 1:2187 dilution), and 4) addition of biotinylated IL-31-CEE (3:1 molar ratio of biotin:protein), 200 ng/mL. This assay was felt to be more pertinent than the binding of antibody to plate bound IL-31-CEE as it assessed the ability of antibody to bind to IL-31-CEE in solution, a property essential to a good antibody for sandwich style ELISAs. It was in fact observed that a number of the master wells supernatants containing antibody that bound well to plate bound IL-31-CEE poorly recognized this molecule in solution.
To reduce the number of hybridomas going into further subcloning, two new assays were performed with exhausted supernatant from each of the selected first round clones. […]

EC50: 0.0134 µg/mL
B1: mouse anti-human IL-31 mAb 294.144.3.5 (antibody, mouse IgG1, V domains shown)
VL: ENVLTQSPAIMSASPGERVTMTCSASSSVSYMHWYQQKSSNSPKLWIYDTTKLASGVPGRFSGSGSGNSYSLTISSMEAEDVATYFCFQGSEHPLTFGGGTTLEI
VH: QVQLQQSGPELMKPGASVKISCKATGYTFSTYWIEWIKQRPGHGLEWIGEILPGRGTTNYNAKFQGKATFTAETSSNTAYMQLSSLTSEDSAVYYCTTESKLGDDDYWQGTTLTVSS
notes: Mouse IgG1; also called ATCC PTA-6873
